Experimental data taken from publication PMC3229523, “Identification of Lactoferricin B Intracellular Targets Using an Escherichia coli Proteome Chip” (PLoS ONE, 2011).
Ends that are not written are not given here. * marks the point of attachment. Biotin = O=C1N[C@H]2[C@H](CS[C@H]2CCCCC(=O)*)N1

Columns and labels:
Experiment in all cases: peptide or protein array; E. coli proteome chip: purified His-tagged proteins printed in duplicate on Fullmoon slides, blocked with 1% BSA; 10 nM N-terminal biotinylated LfcinB with 1% BSA, room temperature, 1 h; detected with DyLight 649-labeled streptavidin, ratio to DyLight 549-labeled anti-His antibody; ProCAT normalisation, local cut-off; triplicate chips
Settings in all cases: both partners purified
RffH = target: T1, RffH (E. coli K-12, UniProt P61887 1-293)
T1 construct: RffH, E. coli K-12

YihS = target: T2, YihS (E. coli K-12, UniProt P32140 1-413)
T2 construct: YihS, E. coli K-12
T2 sequence (looked up): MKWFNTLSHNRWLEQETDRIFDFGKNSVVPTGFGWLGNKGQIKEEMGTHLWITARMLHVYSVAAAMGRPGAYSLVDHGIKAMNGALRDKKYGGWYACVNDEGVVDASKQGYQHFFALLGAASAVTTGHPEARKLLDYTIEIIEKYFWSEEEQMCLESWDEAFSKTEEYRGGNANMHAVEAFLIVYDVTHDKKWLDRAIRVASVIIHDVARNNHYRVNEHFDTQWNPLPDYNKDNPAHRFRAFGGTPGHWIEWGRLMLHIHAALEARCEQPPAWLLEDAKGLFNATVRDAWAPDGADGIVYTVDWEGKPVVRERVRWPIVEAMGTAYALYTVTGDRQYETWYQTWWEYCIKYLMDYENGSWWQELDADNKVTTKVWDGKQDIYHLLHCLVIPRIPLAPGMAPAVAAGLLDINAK

HolC = target: T3, HolC (E. coli K-12, UniProt P28905 1-147)
T3 construct: HolC, E. coli K-12

YbcQ = target: T4, YbcQ (E. coli K-12, UniProt Q47274 1-127)
T4 construct: YbcQ, E. coli K-12
T4 sequence (looked up): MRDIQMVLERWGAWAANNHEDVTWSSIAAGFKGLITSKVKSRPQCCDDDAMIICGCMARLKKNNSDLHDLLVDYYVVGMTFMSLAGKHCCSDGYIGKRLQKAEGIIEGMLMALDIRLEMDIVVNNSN

YbeQ = target: T5, YbeQ (E. coli K-12, UniProt P77234 1-325)
T5 construct: YbeQ, E. coli K-12
T5 sequence (looked up): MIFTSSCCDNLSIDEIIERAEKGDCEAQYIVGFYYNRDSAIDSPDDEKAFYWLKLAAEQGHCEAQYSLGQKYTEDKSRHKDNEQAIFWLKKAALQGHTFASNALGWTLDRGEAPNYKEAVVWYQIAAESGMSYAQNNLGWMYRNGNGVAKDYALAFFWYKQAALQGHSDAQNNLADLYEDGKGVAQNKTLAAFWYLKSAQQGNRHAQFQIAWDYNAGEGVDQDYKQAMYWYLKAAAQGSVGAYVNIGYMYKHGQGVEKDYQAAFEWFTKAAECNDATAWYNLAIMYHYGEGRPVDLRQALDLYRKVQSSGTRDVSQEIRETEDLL

PaaG = target: T6, PaaG (E. coli K-12, UniProt P77467 1-262)
T6 construct: PaaG, E. coli K-12
T6 sequence (looked up): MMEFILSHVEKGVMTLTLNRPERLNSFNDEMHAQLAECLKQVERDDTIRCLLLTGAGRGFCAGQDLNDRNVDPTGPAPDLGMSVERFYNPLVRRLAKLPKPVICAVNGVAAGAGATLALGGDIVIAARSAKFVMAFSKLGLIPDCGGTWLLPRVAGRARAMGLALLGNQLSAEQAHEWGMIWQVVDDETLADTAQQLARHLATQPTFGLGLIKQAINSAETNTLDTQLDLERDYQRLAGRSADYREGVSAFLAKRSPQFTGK

PurC = target: T7, PurC (E. coli K-12, UniProt P0A7D7 1-237)
T7 construct: PurC, E. coli K-12
T7 sequence (looked up): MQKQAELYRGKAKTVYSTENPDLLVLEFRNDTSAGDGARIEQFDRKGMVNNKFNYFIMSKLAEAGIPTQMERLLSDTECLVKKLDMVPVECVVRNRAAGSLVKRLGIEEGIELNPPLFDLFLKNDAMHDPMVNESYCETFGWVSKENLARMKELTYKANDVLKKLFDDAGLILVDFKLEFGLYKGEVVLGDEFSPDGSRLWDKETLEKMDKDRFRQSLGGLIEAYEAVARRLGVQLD

Measured: binding result

T3 sequence (P28905 whole entry): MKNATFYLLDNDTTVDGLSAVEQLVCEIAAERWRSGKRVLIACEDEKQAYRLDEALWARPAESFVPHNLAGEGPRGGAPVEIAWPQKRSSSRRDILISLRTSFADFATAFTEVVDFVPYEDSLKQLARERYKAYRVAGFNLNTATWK
T1 sequence (P61887 whole entry): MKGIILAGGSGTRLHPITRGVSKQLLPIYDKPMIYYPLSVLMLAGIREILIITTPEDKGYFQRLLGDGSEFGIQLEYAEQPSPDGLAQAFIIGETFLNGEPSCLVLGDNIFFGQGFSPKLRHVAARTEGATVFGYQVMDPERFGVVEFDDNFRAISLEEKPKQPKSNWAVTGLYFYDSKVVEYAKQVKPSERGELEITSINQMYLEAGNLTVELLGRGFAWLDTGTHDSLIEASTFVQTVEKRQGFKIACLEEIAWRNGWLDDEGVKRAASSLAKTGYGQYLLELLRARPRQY

B1: N-terminal biotinylated Lactoferricin B (peptide, UniProt P24627 36-60, looked up)
peptide: Biotin-FKCRRWQWRMKKLGAPSITCVRRAF
modifications: ends and bridges not checked
notes: lactoferricin B (LfcinB), cationic antimicrobial peptide of 25 amino acids; also called biotinylated LfcinB; biotin-labeled LfcinB; source: bought: Kelowna Inc
binds: all assays above
